T1: EsCas13d, nuclease-dead (Eubacterium siraeum, UniProt B0MS50, R295A;H300A;R849A;H854A)
T1 sequence: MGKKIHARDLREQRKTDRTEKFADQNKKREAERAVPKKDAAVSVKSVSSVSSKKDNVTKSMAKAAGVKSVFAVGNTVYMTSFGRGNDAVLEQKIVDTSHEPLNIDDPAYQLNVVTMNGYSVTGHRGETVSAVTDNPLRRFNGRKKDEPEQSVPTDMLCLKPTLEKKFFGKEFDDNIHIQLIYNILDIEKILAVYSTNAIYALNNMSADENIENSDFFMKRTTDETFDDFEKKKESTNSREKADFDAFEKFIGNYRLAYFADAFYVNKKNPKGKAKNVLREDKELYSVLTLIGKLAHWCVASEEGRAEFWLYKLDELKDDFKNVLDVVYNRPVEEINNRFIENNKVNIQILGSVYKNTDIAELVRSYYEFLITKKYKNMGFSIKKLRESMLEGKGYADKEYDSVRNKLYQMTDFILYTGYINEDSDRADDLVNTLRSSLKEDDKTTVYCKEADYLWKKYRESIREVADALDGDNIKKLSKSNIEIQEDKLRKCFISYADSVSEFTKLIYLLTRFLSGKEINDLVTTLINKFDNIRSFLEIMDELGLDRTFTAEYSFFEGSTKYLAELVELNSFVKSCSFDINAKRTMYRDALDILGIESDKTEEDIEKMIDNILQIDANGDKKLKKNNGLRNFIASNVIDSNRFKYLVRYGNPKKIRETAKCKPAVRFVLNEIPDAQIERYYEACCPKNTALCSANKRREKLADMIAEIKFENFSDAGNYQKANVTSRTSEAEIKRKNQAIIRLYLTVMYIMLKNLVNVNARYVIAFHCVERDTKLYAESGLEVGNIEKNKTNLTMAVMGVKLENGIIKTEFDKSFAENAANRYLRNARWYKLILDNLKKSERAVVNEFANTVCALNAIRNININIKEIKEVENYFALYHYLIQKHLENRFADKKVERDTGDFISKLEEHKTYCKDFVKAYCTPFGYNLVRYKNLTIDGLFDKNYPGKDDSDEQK

B1: target 1 U10G (mixed)
RNA 1: CACCCGUGCAAAAAUGCAGGGGUCUAAAACUGAGCGGAUAACCUCUCUAUGG
RNA 2: GGGAAUGGAUCCACAUCUACGAAUUCGUACCAUAGAGAGGUGAUCCGCUCACCGAGAUCGGAAGAGCACACGU
B2: target 1 U3C,C6G (mixed)
RNA 1: B1 RNA 1
RNA 2: B1 RNA 2 with G42U, C46G, U49C
B3: target 1 insU 3' of 15,insC 3' of 5 (mixed)
RNA 1: B1 RNA 1
RNA 2: GGGAAUGGAUCCACAUCUACGAAUUCGUACCAUAGAGUAGGUUAUCCGCCUCACCGAGAUCGGAAGAGCACACGU
B4: target 1 insC 3' of 20,insG 3' of 14 (mixed)
RNA 1: B1 RNA 1
RNA 2: GGGAAUGGAUCCACAUCUACGAAUUCGUACCACUAGAGAGGGUUAUCCGCUCACCGAGAUCGGAAGAGCACACGU
B5: target 1 insA 3' of 13,insA 3' of 3 (mixed)
RNA 1: B1 RNA 1
RNA 2: B3 RNA 2 with U38A, A39G, G40A, C50U, U51A
B6: target 1 G12A,G17U (mixed)
RNA 1: B1 RNA 1
RNA 2: B1 RNA 2 with G35U, G40A, G42U
B7: target 1 insA 3' of 21,insA 3' of 6 (mixed)
RNA 1: B1 RNA 1
RNA 2: B4 RNA 2 with C33A, G42U, U44A, A45U, U46C, C48A
B8: target 1 insU 3' of 15,insU 3' of 5 (mixed)
RNA 1: B1 RNA 1
RNA 2: B3 RNA 2 with C49U
B9: target 1 A14G,A16G (mixed)
RNA 1: B1 RNA 1
RNA 2: B1 RNA 2 with A36G, A38G, G42U
B10: target 1 insU 3' of 20,insA 3' of 13 (mixed)
RNA 1: B1 RNA 1
RNA 2: B4 RNA 2 with C33U, G41A
B11: target 1 insU 3' of 12,insU 3' of 4 (mixed)
RNA 1: B1 RNA 1
RNA 2: B3 RNA 2 with U38A, A39G, G41U, C50U
B12: target 1 insA 3' of 22,insU 3' of 15 (mixed)
RNA 1: B1 RNA 1
RNA 2: B4 RNA 2 with C31A, A32C, C33A, A39U, G40A
B13: target 1 insC 3' of 22,insA 3' of 7 (mixed)
RNA 1: B1 RNA 1
RNA 2: B4 RNA 2 with A32C, C33A, G42U, U44A, A45U, U46C, C47A
B14: target 1 insC 3' of 20,insA 3' of 12 (mixed)
RNA 1: B1 RNA 1
RNA 2: B4 RNA 2 with G42A
B15: target 1 U3A,G17U (mixed)
RNA 1: B1 RNA 1
RNA 2: B1 RNA 2 with G35U, G42U, U49A
B16: target 1 U3A,C22A (mixed)
RNA 1: B1 RNA 1
RNA 2: B1 RNA 2 with C30A, G42U, U49A
B17: target 1 C4U,A14G (mixed)
RNA 1: B1 RNA 1
RNA 2: B1 RNA 2 with A38G, G42U, C48U
B18: target 1 insU 3' of 17,insC 3' of 8 (mixed)
RNA 1: B1 RNA 1
RNA 2: B3 RNA 2 with A36U, G37A, U38G, G48C, C49G
B19: target 1 U10A,G15U (mixed)
RNA 1: B1 RNA 1
RNA 2: B1 RNA 2 with G37U, G42A
B20: target 1 insC 3' of 20,insA 3' of 13 (mixed)
RNA 1: B1 RNA 1
RNA 2: B4 RNA 2 with G41A
B21: target 1 A9U,A14G (mixed)
RNA 1: B1 RNA 1
RNA 2: B1 RNA 2 with A38G, G42U, A43U
B22: target 1 U11C,A14G (mixed)
RNA 1: B1 RNA 1
RNA 2: B1 RNA 2 with A38G, U41C, G42U
B23: target 1 insA 3' of 17,insG 3' of 2 (mixed)
RNA 1: B1 RNA 1
RNA 2: B3 RNA 2 with G37A, U38G, C50U, U51C, C52G
B24: target 1 insC 3' of 20,insG 3' of 3 (mixed)
RNA 1: B1 RNA 1
RNA 2: B4 RNA 2 with G42U, U44A, A45U, U46C, C48G, G49C, C50U, U51G
B25: target 1 A1G,U10G (mixed)
RNA 1: B1 RNA 1
RNA 2: B1 RNA 2 with A51G
B26: target 1 insA 3' of 11,insC 3' of 3 (mixed)
RNA 1: B1 RNA 1
RNA 2: B3 RNA 2 with U38A, A39G, G41U, U42A, C50U, U51C
B27: target 1 del18 (mixed)
RNA 1: B1 RNA 1
RNA 2: GGGAAUGGAUCCACAUCUACGAAUUCGUACCAUGAGAGGUUAUCCGCUCACCGAGAUCGGAAGAGCACACGU
B28: target 1 complement block 5-8 (mixed)
RNA 1: B1 RNA 1
RNA 2: B1 RNA 2 with G42U, U44A, C45G, C46G, G47C

Numbering of substitutions follows the chain as printed. In names and notes the source's numbering stands.

Broadly, the Kd is the concentration at which binding is half-saturated. A low value points to higher affinity.

The series has as its target T1, EsCas13d, nuclease-dead. In words: crRNA (strand 1, pre-loaded); Mg2+; 40 mM Tris-HCl pH 7.5, 150 mM NaCl, 6 mM MgCl2, 1 mM DTT, 0.1% Tween-20, 0.2 mg/ml BSA; 25 C; 10 min per concentration, then washed. The conditions noted are these: tags: His6-TwinStrep-SUMO cleaved; N-terminal SNAP kept (SNAP-Surface 488); label: 3' end held by stalled T7 RNA polymerase.
As for B1, binding was put at a Kd of 19.9 ± 1.1 nM.

Regarding B2, the Kd worked out at 12.1 ± 0.7 nM.

Molecule B3 came in with a Kd of 16.9 ± 2.2 nM.

The molecule B4 gave a Kd of 10.1 ± 0.8 nM.

B5 showed a Kd of 3.99 ± 0.33 nM.

Molecule B6 showed a Kd of 18.9 ± 1.4 nM.

The molecule B7 came in with a Kd of 22.1 ± 2.3 nM.

Consider B8, for which the Kd stood at 35 ± 5 nM.

The molecule B9 came in with a Kd of 34.8 ± 2.2 nM.

B10 yielded a Kd of 8.4 ± 1.2 nM.

Consider B11, for which the Kd came out at 5.68 ± 0.27 nM.

Take B12: the Kd is 19 ± 1.8 nM.

Take B13: the Kd is 17.6 ± 2.5 nM.

B14 registered a Kd of 9 ± 0.5 nM.

As to B15, the Kd is 25 ± 4 nM.

B16: the Kd was 60 ± 17 nM.

B17 returned a Kd of about 60 nM.

On to B18, for which the affinity, expressed as Kd, was 44 ± 8 nM.

B19 displayed a Kd of 56 ± 13 nM.

As for B20, the Kd was 4.7 ± 0.4 nM.

In turn, B21 yielded a Kd of 17.7 ± 1.2 nM.

For the molecule B22, the Kd is 13.4 ± 0.6 nM.

In the case of B23, the Kd was found to be 17.3 ± 2.5 nM.

Consider B24, for which the Kd turned out to be 8.3 ± 0.5 nM.

On to B25, for which the Kd came to 21.1 ± 1.1 nM.

Regarding B26, binding was put at a Kd of 13.8 ± 0.6 nM.

Molecule B27 yielded a Kd of 42 ± 8 nM.

In turn, B28 had a Kd of 14.7 ± 0.8 nM.
